Holding throughout (experiment): fluorescence polarisation
Assay [1] deals with T1, Treslin pS1001 fluorescein-labelled phosphopeptide.
T1 chain: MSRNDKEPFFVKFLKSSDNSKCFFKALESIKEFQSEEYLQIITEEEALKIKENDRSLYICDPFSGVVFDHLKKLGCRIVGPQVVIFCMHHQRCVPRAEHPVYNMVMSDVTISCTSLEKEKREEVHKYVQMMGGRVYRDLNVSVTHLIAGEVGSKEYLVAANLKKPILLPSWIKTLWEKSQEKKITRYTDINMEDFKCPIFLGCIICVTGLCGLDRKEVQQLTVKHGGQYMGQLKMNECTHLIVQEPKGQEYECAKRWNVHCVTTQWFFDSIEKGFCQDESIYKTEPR
The conditions noted are these: chain shown with the change; point at 40 µM protein; parent: est. 83; read off a plot.

The target in assay [2] is T2, Treslin pT969 fluorescein-labelled phosphopeptide.
T2 chain: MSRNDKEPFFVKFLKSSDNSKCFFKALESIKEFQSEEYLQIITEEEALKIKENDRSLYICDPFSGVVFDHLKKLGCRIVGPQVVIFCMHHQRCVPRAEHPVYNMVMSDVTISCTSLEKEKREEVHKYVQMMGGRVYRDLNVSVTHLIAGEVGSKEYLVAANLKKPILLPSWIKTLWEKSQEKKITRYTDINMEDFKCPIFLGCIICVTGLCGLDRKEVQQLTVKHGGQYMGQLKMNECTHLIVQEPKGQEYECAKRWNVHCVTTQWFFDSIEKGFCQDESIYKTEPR
The conditions noted are these: chain shown with the change; point at 40 µM protein; parent: est. 70; read off a plot.

Assay [3] has as its target T3, Mdb1 pT113 fluorescein-labelled phosphopeptide.
T3 chain: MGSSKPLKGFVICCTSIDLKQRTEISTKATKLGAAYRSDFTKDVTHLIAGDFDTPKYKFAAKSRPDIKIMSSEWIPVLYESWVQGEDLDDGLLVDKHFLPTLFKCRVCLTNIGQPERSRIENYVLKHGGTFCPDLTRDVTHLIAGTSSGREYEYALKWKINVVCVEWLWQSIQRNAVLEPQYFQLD
Particulars: chain shown with the change; point at 40 µM protein; parent: est. 140; read off a plot.

Assay [4] addresses T4, Treslin pS1001 fluorescein-labelled phosphopeptide.
T4 chain: GYGDIGVVEESPEKGDEI
The conditions noted are these: for response: chain shown with the change, point at 40 µM protein, parent: est. 83, read off a plot; for Kd: chain shown with the change;, parent: 0.60 ± 0.03 µM.

Assay [5] has as its target T5, Treslin pT969 fluorescein-labelled phosphopeptide.
T5 chain: GYGLTKSVAETPVHKQIS
Particulars: for response: chain shown with the change, point at 40 µM protein, parent: est. 70, read off a plot.

Assay [6] concerns the target T6, Mdb1 pT113 fluorescein-labelled phosphopeptide.
T6 chain: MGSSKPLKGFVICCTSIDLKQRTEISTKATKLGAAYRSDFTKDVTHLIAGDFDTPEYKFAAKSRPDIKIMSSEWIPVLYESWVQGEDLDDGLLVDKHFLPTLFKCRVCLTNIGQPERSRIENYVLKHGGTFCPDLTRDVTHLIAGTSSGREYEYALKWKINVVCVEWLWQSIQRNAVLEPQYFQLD
The conditions noted are these: chain shown with the change; point at 40 µM protein; parent: est. 140; read off a plot.

Regarding GYGDIGVVEESPEKGDEI, the response in assay [1] was 12 millidegrees.
As to GYGLTKSVAETPVHKQIS, in assay [2], the response was found to be 0 millidegrees.
On to GYGGVMTVPNTPQKPNLQ [Rad4-BRCT1,2 segment, wild type (recombinant, fluorescence polarisation), P32372 K151E], for which, in assay [3], the response is 92 millidegrees.

B1: TOPBP1-BRCT0,1,2 segment, wild type (recombinant, fluorescence polarisation) K250E (protein)
chain: MSRNDKEPFFVKFLKSSDNSKCFFKALESIKEFQSEEYLQIITEEEALKIKENDRSLYICDPFSGVVFDHLKKLGCRIVGPQVVIFCMHHQRCVPRAEHPVYNMVMSDVTISCTSLEKEKREEVHKYVQMMGGRVYRDLNVSVTHLIAGEVGSKKYLVAANLKKPILLPSWIKTLWEKSQEKKITRYTDINMEDFKCPIFLGCIICVTGLCGLDRKEVQQLTVKHGGQYMGQLKMNECTHLIVQEPKGQEYECAKRWNVHCVTTQWFFDSIEKGFCQDESIYKTEPR
The term Kd denotes the free concentration of one partner at which half of the binding sites on the other are occupied at equilibrium, for simple one-to-one binding. For the molecule B1, in assay [4], the response turned out to be 41 millidegrees and the Kd came to 350 nM. In assay [5], the response was 30 millidegrees.

B2: TOPBP1-BRCT0,1,2 segment, wild type (recombinant, fluorescence polarisation) K155E (protein)
chain: MSRNDKEPFFVKFLKSSDNSKCFFKALESIKEFQSEEYLQIITEEEALKIKENDRSLYICDPFSGVVFDHLKKLGCRIVGPQVVIFCMHHQRCVPRAEHPVYNMVMSDVTISCTSLEKEKREEVHKYVQMMGGRVYRDLNVSVTHLIAGEVGSKEYLVAANLKKPILLPSWIKTLWEKSQEKKITRYTDINMEDFKCPIFLGCIICVTGLCGLDRKEVQQLTVKHGGQYMGQLKMNECTHLIVQEPKGQKYECAKRWNVHCVTTQWFFDSIEKGFCQDESIYKTEPR
As for B2, the response came out at 68 millidegrees in assay [4] and 46 millidegrees in assay [5]. For the same molecule, the dissociation constant Kd was found to be 730 nM in assay [4] and 1000 nM in assay [5] (chain shown with the change;, parent: 0.94 ± 0.06 µM).
Take GYGGVMTVPNTPQKPNLQ [Rad4-BRCT1,2 segment, wild type (recombinant, fluorescence polarisation), P32372 K56E; K151E]: the response in assay [6] was determined as 30 millidegrees.

(Values after PMC6175577, “BRCT domains of the DNA damage checkpoint proteins TOPBP1/Rad4 display distinct specificities for phosphopeptide ligands” (eLife, 2018).)
